US20150140018A1 (MEDICAL AND BIOLOGICAL LABORATORIES, published 2015)

Biological target: T1, CXADR protein on human prostate cancer cells (LNCaP-CR, DU-145) (human, UniProt P78310 20-365)
T1 construct: whole, on cells; Endogenous CXADR; also called coxsackievirus and adenovirus receptor; CAR
T1 sequence (looked up): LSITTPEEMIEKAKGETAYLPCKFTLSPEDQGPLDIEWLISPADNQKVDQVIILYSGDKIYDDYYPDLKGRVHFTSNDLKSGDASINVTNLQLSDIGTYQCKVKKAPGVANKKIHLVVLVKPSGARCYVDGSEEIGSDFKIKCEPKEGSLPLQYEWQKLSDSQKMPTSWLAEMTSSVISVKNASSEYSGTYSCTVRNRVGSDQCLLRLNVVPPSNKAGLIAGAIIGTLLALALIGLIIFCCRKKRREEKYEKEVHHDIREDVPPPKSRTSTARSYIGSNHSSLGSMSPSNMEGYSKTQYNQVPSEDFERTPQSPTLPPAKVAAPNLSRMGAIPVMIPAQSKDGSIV
Assay: flow cytometry, purified antibody at 5 ug/mL on LNCaP-CR and DU-145 cells that express CXADR

B1: anti-CXADR antibody 7F8A (antibody, V domains shown)
VH: DVQLQESGPGLVKPSQTVSLTCTVTGYSITNGNHWWNWIRQVSGSKLEWIGYINSSGSTDSNPSLKSRISITRDTSKNQLFLQLNSVTIEDIATYYCARDDYYFDYWGQGTTLTVSS
VL: DIQMTQSPASLSASVGETVTITCRASENIDSYLAWYQQKQGKSPQLLVYAATLLADGVPSRFSGSGSGTQYSLKINSLQSEDVARYYCQHYYSTPLTFGAGTKLELKR
notes: also called 7F8A clone
Q: Does B1 bind?
A: binds
